This experiment has as its target C. difficile toxin B glucosyltransferase domain (GTD, residues 2-543) (Clostridium difficile, UniProt P18177 2-543).

As usually defined, the EC50 (read off the curve) is the concentration at which the effect is half-maximal. A lower EC50 (read off the curve) goes with greater potency.

Chain of C. difficile toxin B glucosyltransferase domain (GTD, residues 2-543) (P18177 2-543 limits assumed): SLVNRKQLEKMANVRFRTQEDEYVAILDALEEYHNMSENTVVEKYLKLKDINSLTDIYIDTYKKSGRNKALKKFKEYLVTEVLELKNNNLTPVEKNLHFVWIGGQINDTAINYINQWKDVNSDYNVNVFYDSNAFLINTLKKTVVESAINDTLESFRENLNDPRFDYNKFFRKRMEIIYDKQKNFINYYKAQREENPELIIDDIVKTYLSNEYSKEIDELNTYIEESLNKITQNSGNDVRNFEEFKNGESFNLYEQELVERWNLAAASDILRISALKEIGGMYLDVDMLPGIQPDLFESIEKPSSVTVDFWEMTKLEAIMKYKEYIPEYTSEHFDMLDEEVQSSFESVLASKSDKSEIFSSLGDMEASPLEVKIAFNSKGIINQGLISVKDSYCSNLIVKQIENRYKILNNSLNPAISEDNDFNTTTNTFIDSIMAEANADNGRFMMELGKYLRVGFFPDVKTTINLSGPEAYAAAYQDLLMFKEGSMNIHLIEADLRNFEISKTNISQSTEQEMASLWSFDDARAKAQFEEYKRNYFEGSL

B1: GT01 R63A (designed binder, not shown: small tags and cut ends)
chain: DFVLDNEGNPLENGGTYYILSDYGRQLFGGIRAAPTGNERCPLTVVQSLFRNHRDKGIGTIISSPYAIRFIAEGHPLSLKFDSFAVIMLCVGIPTEWSVVEDLPEGPAVKIGENKDAMDGWFRLERVSDDEFNNYKLVFCPQQAEDDKCGDIGISIDHDDGTRRLVVSKNKPLVVQFQKLDKESL
As to B1, the “EC50 (read off the curve)” value was roughly 7 nM.

The values are drawn from patent US20240327495A1 (OXFORD UNIVERSITY INNOVATION, published 2024).
